Measurements taken from patent publication US20150073033A1 (University of Texas, published 2015).

Assays:
[1] = molecular target: T1, endogenous IKKβ (U87/EGFR or U251 cells) (human, UniProt O14920 1-756); test: IP of PKCζ, anti-IKKβ immunoblot, EGF-treated cells
T1 sequence (looked up): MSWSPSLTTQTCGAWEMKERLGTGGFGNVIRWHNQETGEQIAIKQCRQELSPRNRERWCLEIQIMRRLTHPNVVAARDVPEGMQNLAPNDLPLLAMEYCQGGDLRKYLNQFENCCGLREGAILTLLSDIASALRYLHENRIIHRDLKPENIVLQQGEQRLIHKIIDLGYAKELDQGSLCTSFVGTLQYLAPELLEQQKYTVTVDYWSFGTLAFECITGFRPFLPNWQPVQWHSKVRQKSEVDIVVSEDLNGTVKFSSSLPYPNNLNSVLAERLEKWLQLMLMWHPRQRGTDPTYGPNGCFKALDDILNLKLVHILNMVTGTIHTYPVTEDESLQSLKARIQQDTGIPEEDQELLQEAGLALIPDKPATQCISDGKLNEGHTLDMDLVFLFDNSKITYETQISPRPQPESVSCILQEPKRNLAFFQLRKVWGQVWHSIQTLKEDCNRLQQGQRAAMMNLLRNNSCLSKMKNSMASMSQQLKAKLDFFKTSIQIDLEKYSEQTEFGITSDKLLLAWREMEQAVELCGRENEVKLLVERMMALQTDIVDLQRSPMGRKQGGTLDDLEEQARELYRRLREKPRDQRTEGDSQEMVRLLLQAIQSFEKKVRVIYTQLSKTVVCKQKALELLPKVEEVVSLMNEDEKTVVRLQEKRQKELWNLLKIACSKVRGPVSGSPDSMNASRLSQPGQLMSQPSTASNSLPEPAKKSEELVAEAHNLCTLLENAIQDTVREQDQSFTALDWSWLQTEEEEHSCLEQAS

[2] = molecular target: T2, purified recombinant GST-Bub1 (UniProt O43683 1-1085, limits assumed); test: GST pull-down, purified recombinant proteins
T2 construct: Bacterially purified; not shown: GST
Protocol: Nuclei were stained with DAPI (blue). […] A GST pull-down assay was performed.

endogenous Bub1 = endogenous Bub1 (human, UniProt O43683 1-1085); test: co-IP, HeLa cells
Chain of endogenous Bub1 (O43683 whole entry): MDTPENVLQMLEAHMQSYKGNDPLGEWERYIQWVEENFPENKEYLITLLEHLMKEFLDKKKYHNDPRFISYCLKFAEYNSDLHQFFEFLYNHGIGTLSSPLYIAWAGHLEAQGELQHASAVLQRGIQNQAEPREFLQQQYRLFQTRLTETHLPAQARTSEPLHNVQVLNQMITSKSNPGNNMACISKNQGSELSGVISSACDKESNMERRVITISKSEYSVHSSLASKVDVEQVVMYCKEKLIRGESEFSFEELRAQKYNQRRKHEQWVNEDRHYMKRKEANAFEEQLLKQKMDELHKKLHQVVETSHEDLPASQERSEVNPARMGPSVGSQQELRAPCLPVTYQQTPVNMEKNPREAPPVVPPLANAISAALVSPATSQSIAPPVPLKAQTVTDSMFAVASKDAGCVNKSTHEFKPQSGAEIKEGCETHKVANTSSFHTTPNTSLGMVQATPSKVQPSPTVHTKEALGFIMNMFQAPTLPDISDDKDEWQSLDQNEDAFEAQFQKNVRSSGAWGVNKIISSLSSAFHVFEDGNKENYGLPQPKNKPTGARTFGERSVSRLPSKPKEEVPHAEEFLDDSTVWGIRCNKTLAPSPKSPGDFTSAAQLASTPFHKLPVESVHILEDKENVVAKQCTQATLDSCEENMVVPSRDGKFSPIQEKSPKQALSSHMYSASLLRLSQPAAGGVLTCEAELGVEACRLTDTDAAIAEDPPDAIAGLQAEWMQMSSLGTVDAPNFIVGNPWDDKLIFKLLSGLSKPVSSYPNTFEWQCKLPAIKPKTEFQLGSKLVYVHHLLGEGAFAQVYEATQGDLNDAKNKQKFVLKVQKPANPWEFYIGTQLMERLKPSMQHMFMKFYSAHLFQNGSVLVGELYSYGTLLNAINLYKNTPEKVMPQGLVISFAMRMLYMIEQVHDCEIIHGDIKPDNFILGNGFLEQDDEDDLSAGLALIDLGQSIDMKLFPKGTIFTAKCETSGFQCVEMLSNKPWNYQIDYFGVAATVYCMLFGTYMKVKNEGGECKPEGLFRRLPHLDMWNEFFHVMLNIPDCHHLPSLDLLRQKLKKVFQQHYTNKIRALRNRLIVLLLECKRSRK

T2 sequence (O43683 whole entry): as above

B1: endogenous PKCζ (enzyme, human, UniProt Q05513 1-592, looked up)
chain: MPSRTGPKMEGSGGRVRLKAHYGGDIFITSVDAATTFEELCEEVRDMCRLHQQHPLTLKWVDSEGDPCTVSSQMELEEAFRLARQCRDEGLIIHVFPSTPEQPGLPCPGEDKSIYRRGARRWRKLYRANGHLFQAKRFNRRAYCGQCSERIWGLARQGYRCINCKLLVHKRCHGLVPLTCRKHMDSVMPSQEPPVDDKNEDADLPSEETDGIAYISSSRKHDSIKDDSEDLKPVIDGMDGIKISQGLGLQDFDLIRVIGRGSYAKVLLVRLKKNDQIYAMKVVKKELVHDDEDIDWVQTEKHVFEQASSNPFLVGLHSCFQTTSRLFLVIEYVNGGDLMFHMQRQRKLPEEHARFYAAEICIALNFLHERGIIYRDLKLDNVLLDADGHIKLTDYGMCKEGLGPGDTTSTFCGTPNYIAPEILRGEEYGFSVDWWALGVLMFEMMAGRSPFDIITDNPDMNTEDYLFQVILEKPIRIPRFLSVKASHVLKGFLNKDPKERLGCRPQTGFSDIKSHAFFRSIDWDLLEKKQALPPFQPQITDDYGLDNFDTQFTSEPVQLTPDDEDAIKRIDQSEFEGFEYINPLLLSTEESV
B1: no binding [1].

B2: purified recombinant His-PKM2 (wild type) (enzyme)
chain: not shown
notes: Expressed in bacteria and purified; unphosphorylated; also called WT PKM2; WT His-PKM2
B2: no binding [2].

B3: endogenous PKM1 (enzyme)
chain: not shown
notes: Looked for in Bub3-Bub1 immunoprecipitates
B3: no binding (endogenous Bub1).
